Where a chain is given by its changes, count along the chain named. Names and notes keep the numbering of the source.
T1: GST-RIZ332 (GST fusion of human RIZ1 residues 1-332)
T1 chain: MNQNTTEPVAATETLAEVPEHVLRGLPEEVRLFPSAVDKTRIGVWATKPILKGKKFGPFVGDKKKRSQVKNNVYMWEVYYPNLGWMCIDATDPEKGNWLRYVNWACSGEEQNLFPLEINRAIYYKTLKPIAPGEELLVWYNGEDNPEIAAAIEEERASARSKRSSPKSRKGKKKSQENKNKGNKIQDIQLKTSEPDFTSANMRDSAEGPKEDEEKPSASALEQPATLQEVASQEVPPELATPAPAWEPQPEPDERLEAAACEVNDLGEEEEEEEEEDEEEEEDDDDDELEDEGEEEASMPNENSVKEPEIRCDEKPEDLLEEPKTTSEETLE

B1: GST-RIZ200 (GST fusion of human RIZ1 residues 1-200) (protein)
chain: MNQNTTEPVAATETLAEVPEHVLRGLPEEVRLFPSAVDKTRIGVWATKPILKGKKFGPFVGDKKKRSQVKNNVYMWEVYYPNLGWMCIDATDPEKGNWLRYVNWACSGEEQNLFPLEINRAIYYKTLKPIAPGEELLVWYNGEDNPEIAAAIEEERASARSKRSSPKSRKGKKKSQENKNKGNKIQDIQLKTSEPDFTSA
B2: GST-RIZ200 point mutant A159V (protein)
chain: B1 chain with A159V
B3: GST-RIZ200 point mutant I188V (protein)
chain: B1 chain with I188V
B4: GST-RIZ200 point mutant C106Y (protein)
chain: B1 chain with C106Y
B5: GST-RIZ332 (GST fusion of human RIZ1 residues 1-332) (protein)
chain: T1 chain
B6: GSTRIZPBD, GST-hRIZ1(1514-1680) (GST fusion of the PR-binding domain of human RIZ1) (protein)
chain: HRRRTADAEIKMQSMQTPLGKTRARSSGPTQVPLPSSSFRSKQNVKFAASVKSKKPSSSSLRNSSPIRMAKITHVEGKKPKAVAKNHSAQLSSKTSRSLHVRVQKSKAVLQSKSTLASKKRTDRFNIKSRERSGGPVTRSLQLAAAADLSENKREDGSAKQELKDFS
B7: GST-RIZ161 (GST fusion of human RIZ1 residues 1-161) (protein)
chain: MNQNTTEPVAATETLAEVPEHVLRGLPEEVRLFPSAVDKTRIGVWATKPILKGKKFGPFVGDKKKRSQVKNNVYMWEVYYPNLGWMCIDATDPEKGNWLRYVNWACSGEEQNLFPLEINRAIYYKTLKPIAPGEELLVWYNGEDNPEIAAAIEEERASARS
B8: full length RIZ1 protein expressed in mammalian cells from adenovirus AdRIZ1 (protein)
chain: MNQNTTEPVAATETLAEVPEHVLRGLPEEVRLFPSAVDKTRIGVWATKPILKGKKFGPFVGDKKKRSQVKNNVYMWEVYYPNLGWMCIDATDPEKGNWLRYVNWACSGEEQNLFPLEINRAIYYKTLKPIAPGEELLVWYNGEDNPEIAAAIEEERASARSKRSSPKSRKGKKKSQENKNKGNKIQDIQLKTSEPDFTSANMRDSAEGPKEDEEKPSASALEQPATLQEVASQEVPPELATPAPAWEPQPEPDERLEAAACEVNDLGEEEEEEEEEDEEEEEDDDDDELEDEGEEEASMPNENSVKEPEIRCDEKPEDLLEEPKTTSEETLEDCSEVTPAMQIPRTKEEANGDVFETFMFPCQHCERKFTTKQGLERHMHIHISTVNHAFKCKYCGKAFGTQINRRRHERRHEAGLKRKPSQTLQPSEDLADGKASGENVASKDDSSPPSLGPDCLIMNSEKASQDTINSSVVEENGEVKELHPCKYCKKVFGTHTNMRRHQRRVHERHLIPKGVRRKGGLEEPQPPAEQAQATQNVYVPSTEPEEEGEADDVYIMDISSNISENLNYYIDGKIQTNNNTSNCDVIEMESASADLYGINCLLTPVTVEITQNIKTTQVPVTEDLPKEPLGSTNSEAKKRRTASPPALPKIKAETDSDPMVPSCSLSLPLSISTTEAVSFHKEKSVYLSSKLKQLLQTQDKLTPAGISATEIAKLGPVCVSAPASMLPVTSSRFKRRTSSPPSSPQHSPALRDFGKPSDGKAAWTDAGLTSKKSKLESHSDSPAWSLSGRDERETVSPPCFDEYKMSKEWTASSAFSSVCNQQPLDLSSGVKQKAEGTGKTPVQWESVLDLSVHKKHCSDSEGKEFKESHSVQPTCSAVKKRKPTTCMLQKVLLNEYNGIDLPVENPADGTRSPSPCKSLEAQPDPDLGPGSGFPAPTVESTPDVCPSSPALQTPSLSSGQLPPLLIPTDPSSPPPCPPVLTVATPPPPLLPTVPLPAPSSSASPHPCPSPLSNATAQSPLPILSPTVSPSPSPIPPVEPLMSAASPGPPTLSSSSSSSSSSSSFSSSSSSSSPSPPPLSAISSVVSSGDNLEASLPMISFKQEELENEGLKPREEPQSAAEQDVVVQETFNKNFVCNVCESPFLSIKDLTKHLSIHAEEWPFKCEFCVQLFKDKTDLSEHRFLLHGVGNIFVCSVCKKEFAFLCNLQQHQRDLHPDKVCTHHEFESGTLRPQNFTDPSKAHVEHMQSLPEDPLETSKEEEELNDSSEELYTTIKIMASGIKTKDPDVRLGLNQHYPSFKPPPFQYHHRNPMGIGVTATNFTTHNIPQTFTTAIRCTKCGKGVDNMPELHKHILACASASDKKRYTPKKNPVPLKQTVQPKNGVVVLDNSGKNAFRRMGQPKRLNFSVELSKMSSNKLKLNALKKKNQLVQKAILQKNKSAKQKADLKNACESSSHICPYCNREFTYIGSLNKHAAFSCPKKPLSPPKKKVSHSSKKGGHSSPASSDKNSNSNHRRRTADAEIKMQSMQTPLGKTRARSSGPTQVPLPSSSFRSKQNVKFAASVKSKKPSSSSLRNSSPIRMAKITHVEGKKPKAVAKNHSAQLSSKTSRSLHVRVQKSKAVLQSKSTLASKKRTDRFNIKSRERSGGPVTRSLQLAAAADLSENKREDGSAKQELKDFSYSLRLASRCSPPAAPYITRQYRKVKAPAAAQFQGPFFKE

How the values were obtained:
[1] = target: histone H4 (free histones acid-extracted from human cancer cells A549 or U2OS), P62805
[2] = target: T1, GST-RIZ332 (GST fusion of human RIZ1 …)
[3] = target: H1 peptide (aa 15-37)
[4] = target: H3 N terminus 1-20 residue peptide (non-acetylated), P68431
[5] = target: H3 N terminus 1-20 residue peptide acetylated on K9 and K14, P68431
[6] = target: histone H1 (free histones acid-extracted from human cancer cells A549 or U2OS), P07305
[7] = target: histone H3 (free histones acid-extracted from human cancer cells A549 or U2OS), P68431

histone H1 (free histones acid-extracted from human cancer cells A549 or U2OS), P07305, sequence (P07305 whole entry, looked up): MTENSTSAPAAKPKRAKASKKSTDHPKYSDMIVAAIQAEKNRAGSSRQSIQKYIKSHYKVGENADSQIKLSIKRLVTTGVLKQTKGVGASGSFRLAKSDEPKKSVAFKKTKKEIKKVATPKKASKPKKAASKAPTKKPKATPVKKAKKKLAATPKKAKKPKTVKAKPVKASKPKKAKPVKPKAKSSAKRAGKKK

Protein	histone methyltransferase activity in vitro (3H-SAM, SDS-PAGE, fluorography) [1]	further results
B1	Specific labeling of histone H4 was observed in the presence of purified GST product consisting of residues 1-200 of RIZ1	–
B2	missense mutations found in tumors, C106Y, I188V, and A159V, abolished HMT activity	–
B3	missense mutations found in tumors, C106Y, I188V, and A159V, abolished HMT activity	–
B4	missense mutations found in tumors, C106Y, I188V, and A159V, abolished HMT activity	–
B5	A GST fusion protein expressing the N-terminal 332-residue peptide showed similar activities to the N-terminal 200-residue peptide in methylating H4	–
B6	GSTRIZPBD protein alone showed HMT activity, specifically on H4	histone methyltransferase activity in vitro with both proteins present [2]: A synergistic enhancement (more than additive effects) of HMT activity was observed when GSTRIZ322 and GSTRIZPBD were both present in HMT reactions
B7	GST alone or a protein consisting of residues 1-161 lacked HMT activity	–
B8	–	in vitro peptide methylation by RIZ1, then HPLC purification and sequencing [3]: A H1 peptide (aa 15-37) was methylated by RIZ1 in vitro ... lysine 25 was methylated by RIZ1; in vitro peptide methylation by immunoprecipitated RIZ1, then peptide sequencing [4]: A peptide consisting the N-terminal 1-20 residues of H3 was indeed methylated in vitro by immunoprecipitated RIZ1 protein ... A single radioactive peak at lysine 9 was observed; in vitro peptide methylation by immunoprecipitated RIZ1 [5]: a peptide containing acetylated K9 and K14 was not methylated; histone methyltransferase activity of RIZ1 immunoprecipitates on free histones [6]: Immunoprecipitated products by RIZ1 serum from RIZ1-expressing extracts caused methylation of H1, H3, and H4; histone methyltransferase activity of RIZ1 immunoprecipitates on free histones [7]: Immunoprecipitated products by RIZ1 serum from RIZ1-expressing extracts caused methylation of H1, H3, and H4; histone methyltransferase activity of RIZ1 immunoprecipitates on free histones [1]: Immunoprecipitated products by RIZ1 serum from RIZ1-expressing extracts caused methylation of H1, H3, and H4
